Measured values as given in a protein production outcome set (Wang et al. 2014).

Assay: label from the status in PepcDB records

MSLFEQLDELAAQGKPAALLTIVRKDGSAPRDVGDKMIVTADEEYGTIGGGTVEHLAVQDARSVLSGADDPGIRTYELERGGNTGMVCGGEMDVFIDHVRGQAQLYIAGGGHISVELAPLAERLGYAVTVVDDREAYADPTQFPDETDVIHGEYGEALGDLPMGTETAVAVATRSGTFDQAAVAAALDGEAGYVGLVASETKANHVLDSLAESGYARRDLSRVQTPVGLDLGGSGPAAVALSVLAEVTMDRHDATGARATRLNLDDLVVVRGGGDLGSGVVYRLQQAGFPVIVTEVDQPTVVRRAVAFGAALYEDEVEVEGVTGRAAADIDEALELLADDVVPVLVDPEATVADDLDAAVLVDAIMAKGAFDTGTRREDADVVVGMGPGFEAGEDVDAVVETDRGHELGRVFYDGLEHHHHHH
protein production: not failed

MRKVLLTIRKIAMTQPTSRKADLVYQLNDRPPLPQTLFAALQHLLAMFVAVITPSLIICQSLGVPADQTNTIISMSLFASGLSSFIQIRTFGPIGSGLLSIQGTSFNFLGPIIGAGLALKAGGADIETMMAAIFGTILVASSAEILLSRVLQFAQRIITPLVSGIVVTLIGLTLVQVGLISMGGGYAAMADGSFGSLDKLALAGTVLAIIVLLNRAHNPYVRVASIVIAMLVGYVMAYLMGMVNTDNLAETQFIALPIPMQYGLGFDWSLFIPLVLIFLITALEAIGDITATSEVSGEPVKGPVYMKRIKGGVLADGLNSALAAVFNSFPNSTFSQNNGVILLTGVASRYVGYFIAGMLVLLGLFPGVASFVQLIPEPVLGGATIVMFGTIAAAGVRIISRVDLDRRAILIMALSFSMGLGIAQKPEILQFMPEFIKNLFSSGVAAGGITAIVLNLLLPEVRRDEDAASVAKTEAAQESN
protein production: failed

MAPLPLAVIVYEPGDVLEEILAAARDRLVGLPDVRIAGLVPRLGPRHSNGRASFWLDDIVRGDSIALSQDLGPGSTSCILNADGLATARMRLAEAIAVRPDLVLFGRFAKEEIAGRGIREEIGLALAQDVPALVAVERAMLPGWIAFAAEGWTMLPADADAVVAWFVALAAERQSADTLEHHHHHH
protein production: failed

MKHFDYSRGLKAPYSLQVIKSPKGKIVWYFAQPLSLAYLVMLFLGIVLTGIFWKFVPLPLIFGINLNLMIMLYFPNKVARWYTETEFEGKTGLAFLKDGFVYVKNYVLDNRSIISFERVKEIEEFSFKR
protein production: failed

AIDENKQKALAAALGQIEKQFGKGSIMRLGEDRSMDVETISTGSLSLDIALGAGGLPMGRIVELYGPESSGKTTLTLQVIAAAQREGKTCAFIDAEHALDPIYARKLGVDIDNLLCSQPDTGEQALEICDALARSGAVDVIVVDSVAALTPKAEIEGEIGDSHMGLAARMMSQAMRKLAGNLKQSNTLLIFINQIRMKIGVMFGNPETTTGGNALKFYASVRLDIRRIGAVKEGENVVGSETRVKVVKNKIAAPFKQAEFQILYGEGINFYGELVDLGVKEKLIEKAGAWYSYKGEKIGQGKANATAWLKDNPETAKEIEKKVRELLLSNPNSTPDFSVDDSEGVAETNEDF
protein production: not failed

MIHWRNCLASAVPKLAVIAHDLIQVWVCWVALHAARYSMLVHPPGLPYVDWRTLVVLIAQAVVFWRVGLYRGLWRFASVPDLWNIFKSAFSGLIVIVLVLSVTRFEGVPLSVLVVYPFALSVLLGMPRLLYRAWKDYQLIHPVDSSERVLILGAGRTAEALVRDMRRTGAFVPVGFIDDAVYLRGAKIQGLNVLGRLEEVSTIARETAAKLLVIAIPSLDAAGMQRVVAMCESTGLPFRMVPKLIDVLEGRTLPCQLKEVSIEDLLNRKPVIPDWRLIRSWLSGKTVMVTGGGGSIGSEVCRQCARHGASRVVIVEIDELALLTIHSDLRRLFPDIEVLPILGDCGDAAVIAHALRCVRPDAVFHAAAYKQVPLLEEQLREAVRNNVLATENVARHCVAAKIQTFVFISTDKAVEPVNVLGATKRYAEMVCQSFDAKSTGTRFVTVRFGNVLDSAGSVVPLFREQIRQGGPVTVTHPDVTRYFMTISEACQLILQAAALASHGAIYTLDMGEPVRINLLAEQMIRLAGKQPGRDIVIVYTGLRPGEKMHETLFYADENYRPTAHPNILEADVRTFPQEQVLQSVMRLREAVQHYDTVEIESVISMLMPDFHAARHKKETRFETVVPFPAREVRRL
protein production: failed

MSAEATPESTLPGTAAETSPDNPWPLQLLSRKLKAHIERAPAAWIEGQVIELNRRGGNAFLTLRDVDAEISLPASVWSTVLDRQKVPLERGSRVVALVKADFWVKTGRLNMSVKDIRPVGLGDLLARIERLRQALAAEGLFADSRKRKLPLLPHRIGLITGRESDAKKDVMRNAALRWPAVEFDVREVAVQGNTAVSQIIAALKRLDADPHVDVIVLARGGGALEDLLPFSNEDLIRAVSAATTPVVSAIGHEADRPILDDVADLRASTPTDAAKRIVPDVAEELAMVRQARDHLRRSISRMVDRETDRLHALRSRPVLASPASMVDARSEDIHRLQRRTHSAVSTAVVRALDQVHHLRAQVRALSPQKTLDRGYAVVQLVGEDQAGHHVVSSPDEAPDGTPLSIRVAEGRFRAVSAGAGQLVEH
protein production: failed

MPFIYRRRVQFYETDAQGIVHHSNYFRYFEEARGEFLRSKGFPYSKMRDMGLEVVLLNAYCEYKKPLFYDDVFEVHLNLEELSRFTFTFSYIVFKEDIAVAKANTKHCMVKNGKIVSIPKEVLEVLKD
protein production: not failed

MEVKKELNAQSGKKSLMTIENRKRLLLTGVSEVVNFNDEQIVLNTNLGSLIIKGRELKMNKLDVQNGDIAITGTINAVYSGNESSNKKDSIISRLFKLEHHHHHH
protein production: failed

MSEFMQRFADLRDRKAYAEIVDALPYVKLMGTSMAEDEQGELRFELPFLQRNVGNTTLPALHGGLIGGFMESAAMIHLMWNRESLEAPKIVDFSLDYLRPGRPQTLFAQCEITKQGKRVAHVLIEAWQDDRSKPVAVARAHFLLTNLEHHHHHH
protein production: not failed

MDIYIGFSLQIYVIQVRRKPTENLQKTYKKSGNGILFICLIANCEICGTNLLTSELYIPTFTSKTKVMKKRVSAVVIVLVCLGGVACIKTLSTSSVGLPQLAFDNIEALASGESSAYRCYGIGDVDCHGDKVDKMYSGYSLK
protein production: failed

MTIRRLTPTPRAVDWGLFGAVATLLATGVATIFAGIPSSAWIIDLHALSGVVLTLLLPVKLRRVFHRVAPSRLTGTRVLSVGLAAVTLGALGTGVWWIFGGTLDLGPWGLFHLHVALGLLVPPLLLVHLRARFYSPAQATCGGRRDVLRYAGLVTAGALLWRVQGPVNDALDTAGADRRYTGSREEGTDDGNRFPVTSWVADDPDPVDAADWSLSVAGRVAHEASYVAGDLSPDATESAVLDCTSGWYSGHEWQGVRVGDLLDAADPDDAAAWVQFRSITGYRWSLPLSEARDAVLATHVDGERLAHGHGYPLRLVAPGRRGFQWVKWVESVRVSKRRELGEWLAIFVSGL
protein production: failed

MGLNNARGLSFGLDGALYVTEAGTGGNGACIPSVTGQGGSLCYGTSSTVLKIENGVTSPVLTGLPSIALADGTGAGGARDIQFDTTGKPYILMGYGANPTFRNNLGNIDLGKIIAPDFQTNSWTSIADLANYELVNNPDGGDINSNPLGFFIDGNNLIAVDAGANNLLSVQTNGTNLQTLSVFPQEILTNPVFPPSGTPSTEPGQVPTPTAPPPPQLPIQVVPSSVVRGPDGAYYVSQFTGFPFPEGGAKIYRVGTDGETTIYADGFTQLTDLEFDSAGNLYALQYANQSAWKGNFDGSLIKIAADGTRTTILSGNGLESPNALAIAPNGEIYITNRSDRPGLGQIIRVENSQAVPLEHHHHHH
protein production: failed

KALGSKEIPKGAENCLEGLIFVITGVLESIERDEAKSLIERYGGKVTGNVSKKTNYLVMGRDSGQSKSDKAAALGTKIIDEDGLLNLIRTMPGKKSKYEIAVETE
protein production: not failed

MNRLFGNGRCLDVAIDHGVCNEPSFLDGLENMPAVVKALVDARPDAIQMNYGQADLLQDLPGKDKPALVMRIDMGNPYNRIRHRDMWAVLQNEAEPLVGALQMDAACVVVNLFMLPDEPDLFRQCVQNISRVRADCEKYGMPLMIEPLVMQPVTERGGYMVDGDADKIVTLTRLAREMGADIVKADPTTNAEDFHRVVEAARCPVLVRGGGKEDLAAVFAKSTALMRQGAMGMVYGRNIYQHANPSAVVRGLMAIIHQDASGEEAVAIYRQG
protein production: failed

MVKATKAEKKIAYDTKLCQLIDEYTQILVVAADNVGSTQLQNIRKGLRGDSVVLMGKNTMMKRSVRIHSENTGNTAILNLLPLLQGNVGLIFTKGDLKEVSEEVAKYKVGAPARVGLVAPIDVVVQPGNTGLDPSQTSFFQVLNIPTKINKGTVEIITPVELIKQGDKVGSSEAALLAKLGIRPFSYGLVVQSVYDNGSVFSPEVLDLTEDQLVEKFASGISMVTSLALAVSYPTLAAAPHMFINAYKNALAIAVATEYTFPQAEKVKEYLKDPSKFAVASVAAVSADAGGGAPAAAKVEEKEESDEEDYGGDFGLFDEE
protein production: failed

SQVDDWIVGLEVEIFTFDGKEYRGIVYTYDADANCVVLARKSQDSLKSDLRILKASLVKNINVLGRSNVDQLPQQLSPLNLEALKMREEQALQKARKDLARTGVGVSQQAQEIFDALCKTLPCQWEEDSIVIFENIKLKKPYRVEDLDEIEAVNRVKVVLENELQKLQRRNT
protein production: not failed

MQKGVYIMNSTSSIITIGREYGSGGRQIGQEVAKYFGIKCYDKELLEHAANDSGICKELFEHHDEKPTNSFLYSLVMDTYSFGYSSSGFSDMPMNHKIFLAQFDAIKKLAGEGPCVMVGRCADYALADWNDCFSIFVHADLDWRINRIASKHGKTPKEAKDMITKTDKSRASYYNYYTNKKWGAARSYNLCIDSGKLGIDYATEAIIESIKIFDRTKISK
protein production: failed

MFRSKSCREETRSSSITNKYHCFSHGEKSESEPTNQQPPVMMRSYSTSTYNAYQNPTIVRDDSNNKSKRSNKVKKKGFKGLCEAEIQRKKRVASYNVYGVEGRVKGSMKKSFKWFKETCSNAVYGLW
protein production: failed

MLDATTRSGGTATATPRATATDLTVATAAAAAGVTAPGAAVAVPTGFTARCTRVLLSPWSRLSLLVALLAAAASSVLLFEPQKLLAHGWPPQLGGAAAAVVFAVAYGLCTVAFVPRPLLNLAAGALFGSQWGTGTALAGTVLGAGVAFGLGRMLGQDALRPLLRGRWLKAVDGQLSRHAFRSMMAARLFPGVPFWAANYCAAVSRMRWVPFLVATALGSIPNTAAYAVAGARASRPTSPAFLIAMGFIAVPALVGAVVAWRKRHHLRGN
protein production: failed

PNFEKMKKEVEEILYNLKKEGGKYHCILAFSGGKDSVLALKLLKEKFKLNPLCVMVDNKYMAKEAIENALNVTKHYQVDLMILNRDYTDLFEDAIKRGESPCRRCSRLILREVWRVTKLLGLKYIITGHELP
protein production: not failed

MKVTDVRLRKIQTDGRMKALVSITLDEAFVIHDLRVIEGNSGLFVAMPSKRTPDGEFRDIAHPINSDMRQEIQDAVMKVYDETDEVVPDKNATSEDSEEA
protein production: not failed

MSDDEIGDGARAFNQLIQALSLSIETETAVRTFTEMLVSELDVHQLTEQALALLLQHTGADGGAILIEVDGEIRVAASQGIGSAHTLANNDRVRSALRTERRHRVQLPEDLVVDGMLAQFRPKEVIIDPVRHKEVVLGAVVLASGQGFSAEDRNRLDVFERGLALALHNALLYDRLQTLAALDPLEHHHHHH
protein production: failed

MNLLPGFAYIEMESISNLTPLVMKTLAGFIAGIPKAELHLHIEGTLEPEMMLALGERNGVPLPYPDADAAKSAYHFSDLQSFLDIYYRATAVLVTEQDFYDLTIAYLQKAVSRKVCHAEIFFDPQSHIARGVPFETVVGGIGQALSDANGGLGISTKLIMCILRHLSEEDGNAVLEQAVRWKRWISGIGLDSSEKGNPPGKFRELFAKARHYGFFTVAHAGEEGNASSISEALDALHVIRIDHGVHCMEDPVLVERLRLDRIPLTICPLSNVRLNVFGSMREHNLKTMLDAGLCVTINSDDPAYFGGYVNENYLAAAEALNLDRNDIIRLARNSFEASVLSNVQKKLYLQKLDHYVDSFIQ
protein production: failed
